Results as given in the NTF2 design screens of Basanta et al. (2020).

Experiment: protease stability score; higher = more stable; yeast display proteolysis, trypsin and chymotrypsin;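 note: relative to predicted unfolded state with 0 unfolded-like and 1 meaning tenfold more protease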

Compared with “DEDEQFWRNLAEEFMRALETGDEERMQELFDPHARLDIDGRRFHGWDTVIKFFEDLLKHLGITRIEFVYRRVRVINGVFHIEGEINVDGQTRDSRIENIVVDGKSQELRFNHR”, “DEDRESARWLFEIHSRVFETGDEDSLHRLFDPNARFDINGREVHGMDLWIHLLKHIRVSVKDMKIRRHKSVNGRLETDYDSTLSFHVGDKTIELEVRVILVSHKVNGRWEIKEEIVH” is higher in protease stability score: 0.298 for the first, 1.24 for the second.

Going from “EEDQKMLEMVFRIILDLWITGDFDLIERLLDPDVRLDSKIGDKTVHHHGREEVAKHLFHIRIEDFIIHRVHVQGDKITINGELDGHFNGKRFNSEIHIHYVVINGRIRRLSFEEN” to “SDFEEITRKITEIITRAFFTGDWRQIERLMDPEVRNELTIGDKRIERHGRENLVHLLEEAGIDVIRIRSVEIRFFNGRLEVRIDHEVTINGVHFKTVIVVIMIKIDGRWVVHSWSFHFE”, the protease stability score falls from 2.2 to 0.959.

Compared with “TKEEELAHRALHEWINDINTGNEEEFKELVDPNARMLVDGRHHHGREHVINVFIHLIRKVKNLTVDLDEIEIQGDKVTVIGILRVDGREIHITIHSRKINGRWHFEDIVWE”, “SEDEEFLEWTMRLYTKAHATGDEETLTDLMDPNTRLDINGVIWIGREFVRKHHEDLGAKHSRMDLRIRDRDSINGRLIVHTRFRLKIHIGDKDISIEHHTTLYMIKIDGRWHIREIEIR” is lower in protease stability score: 1.6 for the first, 1.09 for the second.

First: DEVERDSELALREFYHAFRTGDEHTLVDLADPRTLTIWNGVELHGREEMKRLWHKVKNITVHDHHIDHERLIGNFVYMDVTIDGTFNGRRYRVRSHMVILKINGKWLYEKQHYE
Second: SESEEEARRKSEVFLRHLRTGDFREFIKLADPHVLNIFPGVNHVGREHWRRLELHLRRREFRVHDERLDIQGDKVRINIDLETDVEFDGKELKFRTLILIEAEKVDGRWRVTEVSEEPR
The protease stability score of the first is higher: 1.16 for the first, 0.524 for the second.

Compared with “HEREHLLERMLKLLLELLLTGDEDTWKHYLDPHTRVIFNGREEHGRTAFERFVKELGVDHIEFKHVEIRHIGDKVHLHVDARVEINGRKHNMHLHIHLRKIDGQWEVKEFRIEIE”, “DREEHELLHAIERWLKAEETGDEHELKKLADPHTRTHIRIGDKHIERHGREDMIKVFRELGFKHHHMRSIEIQGDYVHVRGENRFDGQHITLILIFHKFDGRWILREVEVHIR” is higher in protease stability score: 1.27 for the first, 1.41 for the second.

First: SEEHRDSKRAIDILVHSVRTGDEKSFESFLDPNVRIDVDGVELHGMEFATTIFREWRIHHVHIDRYRSQGDWIEVDTTMDVRYGDKTDTRKTELIILKVNGVWLLHSVIIR
Second: SEEEKVIWDIFQDWVRAYHTGNEDLIEHLMDPHVRLDINGKEKHGREWVRYHLHELREHIRTKEYEVHHFDVVDGRAHADYEFHVEYNGREFYRRTHIEIQIVNGKIRVINIRFE
The protease stability score of the first is lower: 1.19 for the first, 1.43 for the second.

Compared with “SEEEEHEKEVIKRIREAMLTGDEDTLRHLLDPNVRVNIDGVEIVGMEMILRHLREIRVSIKDLKVTHVRSVNGRVEADTRSHLIIIIGDKKYEEESETRFFILKIDGRWLLTTIEFK”, “SEEEELSEIASRITIEILKTGDEHMLHELADPNARLDVNGVESHGRESVVKSFRMLGVKHWTLRDVKVVDGRVWIHGELHVDGKTRRLILIVEKINGRWVMEEIRIG” is lower in protease stability score: 1.49 for the first, 0.817 for the second.

Compared with “SEMEETLKKAFHNLLEHIKTGDEQLLKEFLDPNTKVEVDGVELIGMEKFIELMREIEKRVDVIRSLELEHWEVVGNKIRMEVRLNIEINGKDTFTRTHLIALKVNGRWILHSVRIG”, “SEEVEEAVTKMRHIWEHFLTGDEDTLKELVDPTVRLEQGDKEYHGRDFYIKYSEHIRRRFKNLKIIERDMKFTVYNGKAQMQFDGELRVGDKSTEVVIFLHMRKIDGRWFIEAERIEIR” is lower in protease stability score: 1.75 for the first, 1.38 for the second.

Compared with “EEVEEEVERATRRHVVDLLTGNWDKLIHEMDPNTYLLINGVKFHGREVYEILLREFIRKYKNARYHITVRDYHVQGDKAIIDMEIRIRIGDKEHHIDSELILRKVDGKWFMQEERII”, “DEEERYIIEMLRILAEAILTGDEDETHNQLDPDVRIEWNGVELHGRDELLRFMHHLRIDIKRVEFRSITKVDGRVHTDGLLDVTYFIDGRVFRRRTHTELIILKVDGRWTFHSIKID” is lower in protease stability score: 2.65 for the first, 2.19 for the second.

First: DEEEEMRRRQTTLFLEAWITGDWDLIQRLLDPHTRVDVNGVEIHGMEEFARWFREKKEKVKNLRSHLTDIELQGEKVILYGIDTVNGKTHKVRVKVDIVDGVIKEVRFDLR
Second: TEEDEHLYEYLESLFHHQRTGDEDKYERLLDPHARLDINGVDVIGMERVVHQWHEHWRRYKNMRIHFRHYEIKVFNGRAHLRIEGHMEYGDKKSEVELLFIAIKINGRWVVKQVHITVH
The protease stability score of the first is lower: 1.4 for the first, 1.82 for the second.

First: SEDAKLTEELFREWLTIMLTGDWEQSLRRIDPHARLIIDGRHFHGREEFSKVVKELRFKDMIDRRIHVDENEVFVDVELRGVINGREVTIKTHILIVVIDGVIHSIEIRNR
Second: DEDERHTKILIDLLLHNSHTGDEHVLRHLFDPNVKIVIGDKELIGREYADQFIKRVDVIDHIEIKDWHTIGDKVHFHGETEGVIDGRKVHTHVKLEMKKFDGRWLIHRIVIR
The protease stability score of the first is lower: 1.29 for the first, 1.95 for the second.

Compared with “DEREEIIRKALELFIFSMKTGDEHTLTELLDPNVRLLVGDKEFHGREVFHILIQQFKNIRVEHFEHKDWYEQGDKMRITGRLTFRQGDKRTEIDTTLIILKINGRWIMHDIVIS”, “DEIKDHVEHASRLLLETYETGDEHTLERLVDPHVKLEVNGQEHVGRETTRWMLEFFKNLKIRIEDVRWQGNKIEIHSILHFNGKDLEMIYFAEKVDGRWVIRSVRTT” is lower in protease stability score: 2.17 for the first, 1.38 for the second.

First: SELEEEVRRAVTFWLEALMTGDEESVSHMLDPNVRVDIDGRDLHGREKMIETMKHIRIKHIELTSIKVINGRAHIHTKVDGEFNGRRDTLDVEIIITKINGKWVVKEVNVK
Second: DDSQDIAKTMVDIITKNSLTGDEENFEHLVDPDARLTVNGVELHGREDVVRWMKHARIHDTRVRHIRVQGNKIEVDSESRVDINGKENEMKFKLIFIKVNGQWHIRDIEIR
The protease stability score of the first is lower: 1.7 for the first, 2.13 for the second.

First: DDTRELSKHWHERWLHAHETGDEELLLSLLDPHVRLEVGDKHLIGRDKLKWHMEEEIEFFKNAKLHVRRVSIQGNKIEMELEVRIDGVRHEVHIHYDIIDGRITRFEVRIV
Second: DKEERYLEIAVNVIRHQLETGNEEDLLRNIDPDTRLFIDGRLFHGWETAHYLLRKVKNARIEIRSVHLIGDKIHMDTELIVNGVLRETEITARKVDGQWTWHHIRIE
The protease stability score of the first is lower: 0.21 for the first, 1.39 for the second.

Compared with “DELEKLLKLAMEMSLKLFETGDEESLHRLIDPHVRMEIVQGDKFIELHGREDVVRAMKEFRKKFPNLKVELEDHDIQGDKVIWHSVIHVGDKELELIIISLKFDGRWVLESVELKHR”, “DEDEETAIRVVKEFWKAVMTGDERHLKEYFDPHTRLDVDGQDQHGREDLTEFMFHMRVERTTIHNWRLQGDYVYLHVHVVGQINGKSKETEFYIVVFKINGRWSIHHITIR” is lower in protease stability score: 1.4 for the first, 1.33 for the second.

Going from “DEDEKMSHEASRVTLQVLITGDEEAMHRLLDPNARMDYGDKQFHGWEEVSKLTTELLTRLGVDHYHMNDERIYGEKLDLDLTIHVNGRNRKFIIIVRKINGRWLIDSMTFK” to “SKEEHETHRMIEHILKIVKTGDEENIHKNLDPHVRVNVNGRNLHGREEFVRVMYQWWHEAGVDHVHLTDFEIQGDKAHIHIDEHFNGKRHHIEIIAQKVNGKWLMREVIID”, the protease stability score rises from 0.576 to 1.39.

Going from “DEEEELVREFLHRLKQSHETGDEKMYRENADPDVRIEVNGVTIHGMERATRWASEMRFKHEELRHIEVDENHVHIDGIVKGRINGRDVETKVHFHVRKVNGVWLLKRIKFT” to “SEEDRYDKKMLERLNEAEHTGDWRLFLRQADPDPRTVIGDKELHGWEILEEFLLKIHEQYKGMRFEYRDIDVQGDKIRIEYDLFINGKFTETILIADKVNGKWIIKSHELR”, the protease stability score falls from 0.956 to 0.898.

First: DEEDEALERSRQLLIKILRTGDFEDLDRMLDPHVRIIIGDKEFHGREEAIKWVRERMKRMGAKVVEHFNEDDWRLQGDKIELDGEYNVRQGDKQYHLRVHIISLKVDGKWYFHSLEIK
Second: EEDDRDLEDLLTKLDSAIQTGNWEILHHLIDPHARSHYNGRDFHGWRDLEFLLRIIVEEIRLDTVDMKHHEFYGDKMRLETTLTGEVNGQKTEFTTVLIYLKIDGKWVIHNFEVR
The protease stability score of the first is lower: 0.232 for the first, 0.729 for the second.
